Molecular target: the molecule itself
Assay: SEC

B1: C-terminal domain of mtFDH (ALDH1L2), residues 413-923 (domain or fragment, human, UniProt Q3SY69 413-923, looked up)
chain: VRKLRGEDQEVELVVDYISKEVNEIMVKMPYQCFINGQFTDADDGKTYDTINPTDGSTICKVSYASLADVDKAVAAAKDAFENGEWGRMNARERGRLMYRLADLLEENQEELATIEALDSGAVYTLALKTHIGMSVQTFRYFAGWCDKIQGSTIPINQARPNRNLTFTKKEPLGVCAIIIPWNYPLMMLAWKSAACLAAGNTLVLKPAQVTPLTALKFAELSVKAGFPKGVINIIPGSGGIAGQRLSEHPDIRKLGFTGSTPIGKQIMKSCAVSNLKKVSLELGGKSPLIIFNDCELDKAVRMGMGAVFFNKGENCIAAGRLFVEESIHDEFVTRVVEEIKKMKIGDPLDRSTDHGPQNHKAHLEKLLQYCETGVKEGATLVYGGRQVQRPGFFMEPTVFTDVEDYMYLAKEESFGPIMVISKFQNGDIDGVLQRANSTEYGLASGVFTRDINKAMYVSEKLEAGTVFINTYNKTDVAAPFGGVKQSGFGKDLGEEALNEYLKTKTVTLEY
- stoichiometry N: 4

Source: article PMC3103650 (Chemico-biological interactions, 2011)
